Laboratory results: PMC10960864, “Bidirectional ATP-driven transport of cobalamin by the mycobacterial ABC transporter BacA” (Nature Communications, 2024)

System: Nc1ncnc2c1ncn2[C@@H]1O[C@H](COP(=O)(O)OP(=O)(O)OP(=O)(O)O)[C@@H](O)[C@H]1O
Test: purified protein
Settings: import direction, Mg-ATP varied, 65 µM cyanocobalamin, pH 7.5, 30 °C, 1 mM DTT

Substance BacAMm (Mycobacterium marinum M) has a Km of 250 µM.
